Experimental data from patent US20200255516A1.
pIC50: −log10 of the molar value.

Target: Full-length human TIGIT on CHO cells overexpressing TIGIT (human) (UniProt Q495A1)
Assay: FACS blocking assay on TIGIT-CHO cells; competitor CF633-labeled CD155-Fc at 2 ug/ml

Sequence of Full-length human TIGIT on CHO cells overexpressing TIGIT (human) (Q495A1 22-244 limits assumed): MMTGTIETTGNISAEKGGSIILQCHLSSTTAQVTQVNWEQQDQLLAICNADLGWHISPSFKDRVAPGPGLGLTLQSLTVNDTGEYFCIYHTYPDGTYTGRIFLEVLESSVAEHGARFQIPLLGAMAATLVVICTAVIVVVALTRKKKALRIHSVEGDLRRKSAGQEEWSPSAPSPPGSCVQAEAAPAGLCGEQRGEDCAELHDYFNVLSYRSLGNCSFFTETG

pIC50: < 5.00
Substance: human IgG4 antibody (hIgG4)
